From US20260224723A1, “ANTI-B7H3 ANTIBODY-DRUG CONJUGATE AND USE THEREOF” (Duality Biologics (Suzhou) Co., Ltd., priority 2022, published 2026) come the findings set out here.

For experiment [1], the target named is Human full-length B7H3 on MCF-7 cells (human) (UniProt Q5ZPR3). The experiment in a line: FACS on MCF-7 cells, Alexa 647 anti-human secondary.
For experiment [2] the target is unchanged. The experiment in a line: cell-based or functional assay.
For experiment [3], the target named is Cynomolgus monkey full-length B7H3 on transfected FlpinCHO cells (cynomolgus monkey). The experiment in a line: FACS on cynomolgus monkey B7H3-transfected FlpinCHO cell pool; negative control.

The EC50 is the midpoint of the concentration-response curve. For Enoblituzumab (MacroGenics) (antibody), in experiment [1], the EC50 was 2.49 nM and the Maximum MFI came out at 4640 MFI. In addition, in experiment [2], the Antibody internalization EC50 came out at 1.95 nM and the Antibody internalization Maximum MFI came to 39800 MFI.
Substance hIgG1 isotype (antibody) returned a Maximum MFI in experiment [3] of 6.67 MFI. In experiment [2], this substance came in with an Antibody internalization Maximum MFI of 21 MFI.
